Test results: patent US20050064507A1, “Determining kinase specificity” (priority 2003, published 2005)

What was measured:
PKC-alpha = target: T1, PKC-alpha (Homo sapiens, UniProt P17252); experiment: In vitro kinase assay: peptide phosphorylation by PKC-alpha; format: biochemical; details: for PKC alpha phosphorylation: normalized to best substrate
T1 construct: purchased Calbiochem
Outline: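 Purified active human PKC-alpha, 5-20 ng per well, phosphorylated biotinylated peptides in duplicate wells with 100 μM ATP including 1 uCi/well of ^32P-gamma ATP. The buffer was 100 mM HEPES, 0.05% Triton-X100, 1 mM CaCl2, 20 mM MgCl2, 0.2 mg/ml phosphatidyl serine and PMA 100 ng/ml. Reactions ran at 30° C., usually for 10 minutes, keeping stoichiometry under 5%. They were stopped with ATP/EDTA, captured on streptavidin plates, washed, and counted by scintillation.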

PKC-theta = target: T2, PKC-theta (Homo sapiens, UniProt Q04759); experiment: In vitro kinase assay: peptide phosphorylation by PKC-theta; format: biochemical; details: for PKC theta phosphorylation: normalized to best substrate
T2 construct: His-tag; made in house; host or cells: baculovirus-infected Sf9 cells
Outline: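 Recombinant human PKC-theta, expressed in baculovirus-infected Sf9 cells and purified on a nickel chelating column, was incubated with biotinylated peptides, 100 μM ATP containing ^32P-gamma ATP, and PKC buffer with CaCl2, MgCl2, phosphatidyl serine and PMA at 30° C. Reactions were stopped with ATP/EDTA. Peptides were captured on streptavidin-coated plates, and phosphorylation was normalized to the best substrate.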

T2 sequence (Q04759 whole entry): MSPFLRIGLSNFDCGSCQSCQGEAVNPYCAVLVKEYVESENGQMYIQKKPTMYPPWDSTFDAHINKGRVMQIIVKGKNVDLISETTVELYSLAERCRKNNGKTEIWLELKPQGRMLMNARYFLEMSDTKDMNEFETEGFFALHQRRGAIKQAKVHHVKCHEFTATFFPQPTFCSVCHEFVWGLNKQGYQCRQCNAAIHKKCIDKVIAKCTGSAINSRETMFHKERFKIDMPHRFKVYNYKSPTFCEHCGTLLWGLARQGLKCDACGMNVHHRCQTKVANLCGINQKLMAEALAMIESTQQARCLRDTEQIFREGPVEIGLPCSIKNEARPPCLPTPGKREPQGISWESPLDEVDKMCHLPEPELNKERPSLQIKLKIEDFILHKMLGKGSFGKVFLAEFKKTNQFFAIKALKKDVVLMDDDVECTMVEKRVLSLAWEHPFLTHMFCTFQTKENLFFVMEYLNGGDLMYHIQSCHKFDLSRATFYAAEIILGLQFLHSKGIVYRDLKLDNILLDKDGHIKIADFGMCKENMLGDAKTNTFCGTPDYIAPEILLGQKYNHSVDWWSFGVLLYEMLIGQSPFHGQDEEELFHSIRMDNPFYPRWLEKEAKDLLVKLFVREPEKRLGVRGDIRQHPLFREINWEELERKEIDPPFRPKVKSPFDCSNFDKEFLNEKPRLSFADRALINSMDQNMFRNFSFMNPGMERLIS

## 81 (KRERKTSSKSSVRKRR) [compound 81]
PKC-alpha
  PKC alpha phosphorylation: 62%
PKC-theta
  PKC theta phosphorylation: 46%

## 87 (RQGKRKTSIKRDTVNPL) [compound 87]
PKC-alpha
  PKC alpha phosphorylation: 46%
PKC-theta
  PKC theta phosphorylation: 65%

## 88 (KKPFKLSGLSFKRNRKE) [compound 88]
PKC-alpha
  PKC alpha phosphorylation: 48%
PKC-theta
  PKC theta phosphorylation: 38%

## 91 (VHYTSKDTLRKRHYWR) [compound 91]
PKC-alpha
  PKC alpha phosphorylation: 60%
PKC-theta
  PKC theta phosphorylation: 10%

## 97 (KKRSSKKEASMKKVVRP) [compound 97]
PKC-alpha
  PKC alpha phosphorylation: 37%
PKC-theta
  PKC theta phosphorylation: 31%

## 98 (AGPLRKSSLKKGGRL) [compound 98]
PKC-alpha
  PKC alpha phosphorylation: 25%
PKC-theta
  PKC theta phosphorylation: 22%

## 148 (RELEQLKAEYLERRASRRRA) [compound 148]
PKC-alpha; peptide concentration 1 uM
  phosphorylation by PKC alpha: 19
PKC-alpha; peptide concentration 10 uM
  phosphorylation by PKC alpha: 22
PKC-theta; peptide concentration 1 uM
  phosphorylation by PKC theta: 34
PKC-theta; peptide concentration 10 uM
  phosphorylation by PKC theta: 34

## 149 (RVVQSVKHTKRKSSTVMK) [compound 149]
PKC-alpha; peptide concentration 1 uM
  phosphorylation by PKC alpha: 33
PKC-alpha; peptide concentration 10 uM
  phosphorylation by PKC alpha: 52
PKC-theta; peptide concentration 1 uM
  phosphorylation by PKC theta: 13
PKC-theta; peptide concentration 10 uM
  phosphorylation by PKC theta: 14

## 150 (VDPFYEMLAARKKRISVKKK) [compound 150]
PKC-alpha; peptide concentration 1 uM
  phosphorylation by PKC alpha: 12
PKC-alpha; peptide concentration 10 uM
  phosphorylation by PKC alpha: 11
PKC-theta; peptide concentration 1 uM
  phosphorylation by PKC theta: 35
PKC-theta; peptide concentration 10 uM
  phosphorylation by PKC theta: 35

## 151 (PQNSLKASNRKKKRTSFKRK) [compound 151]
PKC-alpha; peptide concentration 1 uM
  phosphorylation by PKC alpha: 17
PKC-alpha; peptide concentration 10 uM
  phosphorylation by PKC alpha: 16
PKC-theta; peptide concentration 1 uM
  phosphorylation by PKC theta: 25
PKC-theta; peptide concentration 10 uM
  phosphorylation by PKC theta: 19

## 152 (DLIEGRKGAQIVKRASLKRG) [compound 152]
PKC-alpha; peptide concentration 1 uM
  phosphorylation by PKC alpha: 13
PKC-alpha; peptide concentration 10 uM
  phosphorylation by PKC alpha: 12
PKC-theta; peptide concentration 1 uM
  phosphorylation by PKC theta: 31
PKC-theta; peptide concentration 10 uM
  phosphorylation by PKC theta: 30

## 153 (TYLLPDKSRQGKRKTSIKRD) [compound 153]
PKC-alpha; peptide concentration 1 uM
  phosphorylation by PKC alpha: 17
PKC-alpha; peptide concentration 10 uM
  phosphorylation by PKC alpha: 22
PKC-theta; peptide concentration 1 uM
  phosphorylation by PKC theta: 22
PKC-theta; peptide concentration 10 uM
  phosphorylation by PKC theta: 18
